Data as given in US6787359B1, “Gene transfer methods” (Takara Shuzo Co., Ltd., priority 1998, dated 2004).

Test system: mouse leukemia L1210 cells
Assay: Gene transfer with PM5neo virus on coated plates, G418-resistant cells by WST-1 absorbance
Assay type: cell-based
Conditions: for Absorbance difference (450 nm-650 nm), G418-resistant cells: Experiment 2
Procedure: 50 μl of […] solution of H-271, H-296, C-274, CH-271, CH-296, ColV, human basic fibroblast growth factor (bFGF; Progen), tenascin (Gibco) or epidermal growth factor (EGF; Takara Shuzo), or 50 μl of 2% bovine serum albumin (BSA, Sigma) was added to each well of a 96-well non-treated microplate for cell culture (Falcon). The plate was allowed to stand at 4° C. overnight and then washed twice with phosphate buffered saline (PBS; Roman Kogyo). Alternatively, after the plate was treated as described above, 0.1 ml of 4 mg/ml solution of 1-ethyl-3-dimethylaminopropylcarbodiimide hydrochloride (Sigma) in sterile pure water was dispensed to each well. The reaction was allowed to proceed at 37° C. for 2 hours. The plate was washed extensively with pure water to prepare a carbodiimide-treated plate. These plates were stored at 4° C. until viral infection experiments were conducted.
10^4 mouse leukemia L1210 cells (ATCC CCL-219), which had been grown in RPMI 1640 medium (Bio Whittaker) supplemented with 10% FCS, 50 units/ml penicillin and 50 μg/ml streptomycin, and 50 μl of PM5neo virus supernatant (10^4 cfu/ml) were added to the well of the microplate. After the plate was incubated for 24 hours, the medium was changed to the same medium containing G418 (Gibco) at a final concentration of 0.75 mg/ml, and the plate was then incubated for additional 48 hours. G418-resistance cells were assessed according to the method as described in S. Kim et al. [Gene Therapy, 3:1018-1020 (1996)] with a partial modification in which color developed using Premix WST-1 reagent (Takara Shuzo) was measured as absorbance at 450 nm. […] Absorbance at 450 nm and 650 nm was then measured using a microplate reader, and the difference (450 nm-650 nm) was calculated. The value obtained using a plate coated with 2% BSA without carbodiimide treatment was defined as background.

B1: EGF: epidermal growth factor (Takara Shuzo) (protein, UniProt P01133 23-1207, looked up)
Pro-epidermal growth factor: PQHWSCPEGTLAGNGNSTCVGPAPFLIFSHGNSIFRIDTEGTNYEQLVVDAGVSVIMDFHYNEKRIYWVDLERQLLQRVFLNGSRQERVCNIEKNVSGMAINWINEEVIWSNQQEGIITVTDMKGNNSHILLSALKYPANVAVDPVERFIFWSSEVAGSLYRADLDGVGVKALLETSEKITAVSLDVLDKRLFWIQYNREGSNSLICSCDYDGGSVHISKHPTQHNLFAMSLFGDRIFYSTWKMKTIWIANKHTGKDMVRINLHSSFVPLGELKVVHPLAQPKAEDDTWEPEQKLCKLRKGNCSSTVCGQDLQSHLCMCAEGYALSRDRKYCEDVNECAFWNHGCTLGCKNTPGSYYCTCPVGFVLLPDGKRCHQLVSCPRNVSECSHDCVLTSEGPLCFCPEGSVLERDGKTCSGCSSPDNGGCSQLCVPLSPVSWECDCFPGYDLQLDEKSCAASGPQPFLLFANSQDIRHMHFDGTDYGTLLSQQMGMVYALDHDPVENKIYFAHTALKWIERANMDGSQRERLIEEGVDVPEGLAVDWIGRRFYWTDRGKSLIGRSDLNGKRSKIITKENISQPRGIAVHPMAKRLFWTDTGINPRIESSSLQGLGRLVIASSDLIWPSGITIDFLTDKLYWCDAKQSVIEMANLDGSKRRRLTQNDVGHPFAVAVFEDYVWFSDWAMPSVMRVNKRTGKDRVRLQGSMLKPSSLVVVHPLAKPGADPCLYQNGGCEHICKKRLGTAWCSCREGFMKASDGKTCLALDGHQLLAGGEVDLKNQVTPLDILSKTRVSEDNITESQHMLVAEIMVSDQDDCAPVGCSMYARCISEGEDATCQCLKGFAGDGKLCSDIDECEMGVPVCPPASSKCINTEGGYVCRCSEGYQGDGIHCLDIDECQLGEHSCGENASCTNTEGGYTCMCAGRLSEPGLICPDSTPPPHLREDDHHYSVRNSDSECPLSHDGYCLHDGVCMYIEALDKYACNCVVGYIGERCQYRDLKWWELRHAGHGQQQKVIVVAVCVVVLVMLLLLSLWGAHYYRTQKLLSKNPKNPYEESSRDVRSRRPADTEDGMSSCPQPWFVVIKEHQDLKNGGQPVAGEDGQAADGSMQPTSWRQEPQLCGMGTEQGCWIPVSSDKGSCPQVMERSFHMPSYGTQTLEGGVEKPHSLLSANPLWQQRALDPPHQMELTQ
modifications: Pro-epidermal growth factor
Plate treated with carbodiimide
  Absorbance difference (450 nm-650 nm), G418-resistant cells: 0.077 ± 0.038
Plate untreated
  Absorbance difference (450 nm-650 nm), G418-resistant cells: 0.030 ± 0.021
Carbodiimide treatment carried out
  Appearance of G418-resistant cells (in words): increased
